Experiment [1] deals with NPR-A-Fc receptor fusion protein (human). The experiment is described as follows: BIAcore surface plasmon resonance; NPR-A-Fc captured by immobilized goat anti-human Fc gamma antibody, analyte injected; 1:1 Langmuir fit. (In general: In SPR one partner is held on a chip, and binding of the other changes the refractive index at the surface.)
Experiment [2] has the same target. Put plainly: SPR (BIAcore), NPR-A-Fc captured by anti-human Fc, analyte injected, 1:1 Langmuir fit; experiment with Fc-Uro.
The target is the same in experiment [3]. Put plainly: SPR (BIAcore), NPR-A-Fc captured by anti-human Fc, analyte injected, 1:1 Langmuir fit; experiment with Uro-Fc.
For experiment [4] the target is unchanged. The experiment is described as follows: SPR (BIAcore), NPR-A-Fc captured by anti-human Fc, analyte injected, 1:1 Langmuir fit.
In experiment [5] the target is NPR-A receptor expressed on transfected cells. The experiment is described as follows: cell-based or functional assay.
The target in experiment [6] is T1, NPR-A receptor (Homo sapiens, UniProt P16066).
T1 construct: expressed in transfected cells; host or cells: mammalian tissue culture cells (e.g., 3T12 cells)
T1 sequence (P16066 33-1061): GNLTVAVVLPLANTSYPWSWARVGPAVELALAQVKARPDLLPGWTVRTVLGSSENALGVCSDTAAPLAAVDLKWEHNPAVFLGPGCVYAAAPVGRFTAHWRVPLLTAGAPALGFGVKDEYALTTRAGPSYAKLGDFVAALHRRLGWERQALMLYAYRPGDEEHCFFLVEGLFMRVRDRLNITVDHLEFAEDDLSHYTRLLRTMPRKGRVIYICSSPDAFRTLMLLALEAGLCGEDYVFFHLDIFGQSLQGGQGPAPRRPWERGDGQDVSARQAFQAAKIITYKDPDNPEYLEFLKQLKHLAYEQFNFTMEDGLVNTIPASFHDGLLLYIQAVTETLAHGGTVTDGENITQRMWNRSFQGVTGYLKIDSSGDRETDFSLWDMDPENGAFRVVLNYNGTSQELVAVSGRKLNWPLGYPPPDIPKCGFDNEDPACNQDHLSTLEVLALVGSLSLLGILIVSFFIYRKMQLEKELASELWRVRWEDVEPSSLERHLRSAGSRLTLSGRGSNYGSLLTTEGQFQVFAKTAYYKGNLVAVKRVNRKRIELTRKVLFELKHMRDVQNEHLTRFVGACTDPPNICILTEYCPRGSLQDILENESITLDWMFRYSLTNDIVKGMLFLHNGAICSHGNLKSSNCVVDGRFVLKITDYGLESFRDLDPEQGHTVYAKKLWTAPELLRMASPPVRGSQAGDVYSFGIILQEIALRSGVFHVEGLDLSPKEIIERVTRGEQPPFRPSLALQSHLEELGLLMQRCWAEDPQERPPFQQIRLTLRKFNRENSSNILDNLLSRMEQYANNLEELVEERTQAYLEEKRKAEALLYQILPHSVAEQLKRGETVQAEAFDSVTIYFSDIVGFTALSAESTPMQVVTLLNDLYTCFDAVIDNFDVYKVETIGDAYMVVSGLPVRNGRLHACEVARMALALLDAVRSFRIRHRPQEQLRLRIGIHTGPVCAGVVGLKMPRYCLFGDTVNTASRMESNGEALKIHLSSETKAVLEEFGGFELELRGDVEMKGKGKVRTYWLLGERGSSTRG
The experiment is described as follows: NPR-A receptor activation, intracellular cGMP in transfected cells. The format is cell-based. The conditions noted are these: cells expressing NPR-A; Fc-Uro vs ularitide (FIG. 3B); read-out: EC50 of cGMP induction.
Experimental: NPR-A receptor activation by test compounds was determined by incubation with mammalian cells transfected with expression vector DNA encoding for the NPR-A receptor and measuring the amount of cGMP generated in these cells.
Mammalian tissue culture cells (e.g., 3T12 cells) transfected with expression vector DNA encoding for the NPR-A were cultured in 96-well microtiter plates for 18-20 hours (˜50,000 cells/well) using standard tissue culture conditions. The tissue culture medium was then changed to serum-free medium, cells were pre-incubated with 1 mM IBMX for 30 minutes and treated with various concentrations of test compounds for 10 minutes. Cells were then lysed with 0.2 ml/well of 0.1 M HCl for 20 min, and lysates centrifuged at 1000×g for 2 min. The cGMP in the supernatants was determined using a commercial kit (Direct cGMP EIA Kit, Assay Designs, Inc., Cat#901-014) according to the manufacturer's instructions.

Experiment [7] deals with T2, purified NPR-A-Fc fusion protein (extracellular domain of the receptor NPR-A) (Homo sapiens, UniProt P16066).
T2 construct: Expression construct encoding for the extracellular domain of the receptor NPR-A fused to the DNA encoding for the Fc domain of human immunoglobulin; made in house
T2 sequence (P16066 33-473 limits assumed): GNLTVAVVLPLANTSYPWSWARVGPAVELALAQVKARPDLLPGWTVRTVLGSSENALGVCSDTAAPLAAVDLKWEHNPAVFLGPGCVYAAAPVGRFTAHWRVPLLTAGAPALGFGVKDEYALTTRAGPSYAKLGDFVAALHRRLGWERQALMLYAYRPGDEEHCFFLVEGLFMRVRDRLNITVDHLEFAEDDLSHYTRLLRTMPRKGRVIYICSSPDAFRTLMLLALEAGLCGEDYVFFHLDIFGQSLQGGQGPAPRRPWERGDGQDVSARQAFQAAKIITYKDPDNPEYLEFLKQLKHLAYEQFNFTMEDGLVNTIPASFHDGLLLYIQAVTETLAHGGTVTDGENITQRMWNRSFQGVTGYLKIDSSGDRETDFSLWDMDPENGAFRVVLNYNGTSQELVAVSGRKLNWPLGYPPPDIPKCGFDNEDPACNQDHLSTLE
Put plainly: BIAcore natriuretic peptide receptor (NPR) binding assay. To be noted: Fc-Uro vs ularitide comparison (FIG. 2B), n=6, read-out: Binding affinities (KD) on the NPR-A receptor.
Experimental: Kinetics measurements for analytes resulting in estimates of binding affinity constants (KD) were performed using BIAcore 2000 & 3000 instruments and methods recommended by the manufacturer (BIAcore, Sweden). […] Purified NPR-A-Fc receptor fusion proteins were captured by goat anti-human Fcγ (GAHFc) antibodies (Jackson ImmunoResearch, Cat 109-005-098) immobilized onto the sensorchip surface. The unoccupied GAHFc after the capture was shielded from analytes by the injection of human Fc (huFc, Jackson ImmunoResearch, Cat 009-000-008). Analytes were injected to obtain an association phase followed by injection of HBS-P running buffer (10 mM HEPES, 150 mM sodium chloride, 0.005% P-20 surfactant, pH 7.4) to monitor dissociation for each binding cycle.
The binding kinetics of each analyte-receptor pair was calculated from a global analysis of sensorgram data collected from different analyte concentrations using the BIAevaluate program (BIAcore, Sweden). The affinity (KD) resulting from association (ka) and dissociation (kd) of each analyte against each receptor was obtained by simultaneously fitting the association and dissociation phases of the sensorgram from the analyte concentration series using the same 1:1 Langmuir model from the BIAevaluate software (BIAcore, Sweden).

As a reminder, the Kd is the constant that tells how readily two partners part at equilibrium. A word on the EC50: it is the concentration needed to bring the measured effect to its halfway point.

Regarding ularitide (peptide), the dissociation constant Kd is 0.0031 nM in experiment [1], 0.0042 nM in experiment [2] and 3100 nM in experiment [3].
Turning to “Uro-Fc(huFcG1(m1)) fusion protein (Fc fusion)”, the Kd in experiment [4] is 7000 nM; in experiment [1], 0.007 nM. Also, in experiment [5], the intracellular cGMP levels, EC50 was 26.3 nM.
Take “Fc-Uro(huFcG1(m1)) fusion protein (from UniProt P01857 104-330) (Fc fusion)”: the Kd in experiment [4] turned out to be 0.35 nM. In experiment [5], this molecule returned an intracellular cGMP levels, EC50 of 86 nM.

B1: Fc-Uro(huFcG1(m1)): fusion protein: Fc portion of variant human immunoglobulin heavy constant gamma 1 at amino terminus and human urodilatin at carboxy terminus (protein)
chain: DKTHTCPPCPAPEAEGAPSVFLFPPKPKDTLMISRTPEVTCVVVDVSHEDPEVKFNWYVDGVEVHNAKTKPREEQYNSTYRVVSVLTVLHQDWLNGKEYKCKVSNKALPAPIEKTISKAKGQPREPQVYTLPPSRQELTKNQVSLTCLVKGFYPSDIAVEWESNGQPENNYKTTPPVLDSDGSFFLYSKLTVDKSRWQQGNVFSCSVMHEALHNHYTQKSLSLSPGKTAPRSLRRSSCFGGRMDRIGAQSGLGCNSFRY
Consider B1, for which, in experiment [6], the EC50 came out at 86 nM. Moreover, the Kd in experiment [7] was 0.35 ± 0.1 nM.

These data come from patent US20080181903A1, “CONJUGATE OF NATRIURETIC PEPTIDE AND ANTIBODY CONSTANT REGION” (PDL BioPharma, Inc., priority 2006, published 2008).
